In article PMC7583906, “Functional Recovery of a GCDH Variant Associated to Severe Deflavinylation—Molecular Insights into Potential Beneficial Effects of Riboflavin Supplementation in Glutaric Aciduria-Type I Patients” (International Journal of Molecular Sciences, 2020):
Several values for one entry are separate records, joined by “and”; a condition that tells them apart may be missing. Identical values can stand only once.

B1: glutaryl-coenzyme A (CoA) dehydrogenase, wild-type (GCDH-WT) (enzyme, human)
chain: EFDWQDPLVLEEQLTTDEILIRDTFRTYCQERLMPRILLANRNEVFHREIISEMGELGVLGPTIKGYGCAGVSSVAYGLLARELERVDSGYRSAMSVQSSLVMHPIYAYGSEEQRQKYLPQLAKGELLGCFGLTEPNSGSDPSSMETRAHYNSSNKSYTLNGTKTWITNSPMADLFVVWARCEDGCIRGFLLEKGMRGLSAPRIQGKFSLRASATGMIIMDGVEVPEENVLPGASSLGGPFGCLNNARYGIAWGVLGASEFCLHTARQYALDRMQFGVPLARNQLIQKKLADMLTEITLGLHACLQLGRLKDQDKAAPEMVSLLKRNNCGKALDIARQARDMLGGNGISDEYHVIRHAMNLEAVNTYEGTHDIHALILGRAITGIQAFTASK
notes: human glutaryl-CoA dehydrogenase (GCDH), recombinant; source: E. coli BL21 (DE3), soluble extract incubated overnight with excess FAD, purified (HisTrap HP)
B2: GCDH-p.Val400Met clinical variant (enzyme, human)
chain: EFDWQDPLVLEEQLTTDEILIRDTFRTYCQERLMPRILLANRNEVFHREIISEMGELGVLGPTIKGYGCAGVSSVAYGLLARELERVDSGYRSAMSVQSSLVMHPIYAYGSEEQRQKYLPQLAKGELLGCFGLTEPNSGSDPSSMETRAHYNSSNKSYTLNGTKTWITNSPMADLFVVWARCEDGCIRGFLLEKGMRGLSAPRIQGKFSLRASATGMIIMDGVEVPEENVLPGASSLGGPFGCLNNARYGIAWGVLGASEFCLHTARQYALDRMQFGVPLARNQLIQKKLADMLTEITLGLHACLQLGRLKDQDKAAPEMVSLLKRNNCGKALDIARQARDMLGGNGISDEYHMIRHAMNLEAVNTYEGTHDIHALILGRAITGIQAFTASK
notes: human glutaryl-CoA dehydrogenase (GCDH), disease variant p.Val400Met of glutaric aciduria type I, recombinant; The assays tell the states apart; also called holo GCDH-p.Val400Met; apo GCDH-p.Val400Met; source: E. coli BL21 (DE3), purified (HisTrap HP); holo form from soluble extract incubated overnight with excess FAD, apo form without the FAD incubation

Target: the molecule itself
Test: SEC; Superdex 200 10/300 GL, 10 mM HEPES pH 7.8, 150 mM NaCl, typically 0.5 mg applied; holoprotein (FAD bound) as purified; Gaussian deconvolution of the profile

Row | Protein | stoichiometry N
1 | B1 | 4
2 | B2 | 4 and 2
